# Target: α-amylase
# Assay: cell-based or functional assay
substance,measurement,value
thioredoxin/90-mer ELP/tendamistat fusion protein (from UniProt P01092 31-104),α-amylase inhibition activity (colorimetric α-amylase inhibition assay),2 fold

# Source: US20050255554A1
